The record followed here is US20200339967, “CAS12C COMPOSITIONS AND METHODS OF USE” (The Regents of the University of California, published 2020).

In data set [1] the target is T1, Cas12c_1 (C2c3_1).
T1 chain: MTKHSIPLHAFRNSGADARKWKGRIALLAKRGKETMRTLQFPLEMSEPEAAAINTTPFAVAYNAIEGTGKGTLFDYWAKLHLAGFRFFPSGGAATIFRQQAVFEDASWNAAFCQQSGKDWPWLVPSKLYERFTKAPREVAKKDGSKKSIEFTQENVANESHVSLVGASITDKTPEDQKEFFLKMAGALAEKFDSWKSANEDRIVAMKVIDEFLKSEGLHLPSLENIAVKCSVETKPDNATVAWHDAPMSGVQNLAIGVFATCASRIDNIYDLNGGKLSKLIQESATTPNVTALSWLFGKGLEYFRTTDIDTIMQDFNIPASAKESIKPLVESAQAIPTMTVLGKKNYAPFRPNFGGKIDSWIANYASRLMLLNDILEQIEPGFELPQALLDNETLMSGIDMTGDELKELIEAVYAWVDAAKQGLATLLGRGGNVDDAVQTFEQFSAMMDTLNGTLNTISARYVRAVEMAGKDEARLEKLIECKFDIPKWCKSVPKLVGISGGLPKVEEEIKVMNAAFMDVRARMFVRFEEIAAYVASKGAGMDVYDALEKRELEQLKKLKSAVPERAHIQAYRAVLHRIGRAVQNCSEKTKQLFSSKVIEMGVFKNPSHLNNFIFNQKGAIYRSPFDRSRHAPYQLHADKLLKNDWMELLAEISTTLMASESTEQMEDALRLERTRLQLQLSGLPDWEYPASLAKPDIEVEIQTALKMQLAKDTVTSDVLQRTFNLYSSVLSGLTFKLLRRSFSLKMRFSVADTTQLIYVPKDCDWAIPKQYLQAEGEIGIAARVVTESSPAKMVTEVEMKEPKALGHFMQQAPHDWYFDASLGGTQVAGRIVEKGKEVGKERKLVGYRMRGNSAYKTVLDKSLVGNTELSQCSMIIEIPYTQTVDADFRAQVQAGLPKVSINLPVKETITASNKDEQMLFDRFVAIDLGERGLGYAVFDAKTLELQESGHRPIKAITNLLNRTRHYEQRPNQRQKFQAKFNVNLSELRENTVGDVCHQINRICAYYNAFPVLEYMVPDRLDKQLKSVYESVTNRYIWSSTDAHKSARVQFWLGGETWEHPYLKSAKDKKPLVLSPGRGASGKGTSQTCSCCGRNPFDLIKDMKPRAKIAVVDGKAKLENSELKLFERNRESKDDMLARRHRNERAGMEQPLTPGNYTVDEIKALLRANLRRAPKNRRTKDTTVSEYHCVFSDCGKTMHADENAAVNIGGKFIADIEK
The data set is described as follows: pulldown; trancRNA co-purified with Cas12c and guide RNA; RNA sequencing and urea-PAGE; long vs short form not distinguished in text. An excerpt: FIG. 3. The Cas12c CRISPR/Cas locus (for the Cas12c_1 protein) was transferred to and expressed in E. coli. Results from the RNA mapping of the Cas12c locus are presented (Top). In addition, the Cas12c protein was tagged and purified, and the RNA that was associated with the protein was sequenced, and results from the RNA mapping are presented (bottom). Both mapping results indicated the existence of a highly transcribed non-coding transcript adjacent to the Cas1-encoding sequence but on the opposite side of the Cas1-encoding sequence as the CRISPR array (Small repeating aligned arrows represent the repeats of the CRISPR array). The highly transcribed noncoding RNA is not complementary to the directed repeat as are transactivating CRISPR RNAs (tracrRNA). The transactivating noncoding RNA is referred herein as “trancRNA”.
FIG. 4. RNAs that pulled down (co-purified) with the Cas12c protein were run on urea-PAGE gels, confirming the presence of guide RNA and trancRNA.

In data set [2] the target is T1, Cas12c_1 (C2c3_1). The data set is described as follows: pulldown; trancRNA co-purified with Cas12c and guide RNA; long vs short form not distinguished in text.

B1: Cas12c_1 trancRNA (long) (ssRNA)
RNA: AUACCACCCGUGCAUUUCUGGAUCAAUGAUCCGUACCUCAAUGUCCGGGCGCGCAGCUAGAGCGACCUGAAAUCUGCACGAAAACCGGCGAAAGCCGGUUUUUUGU
Turning to B1, the binding result in the data set with Cas12c_1 (C2c3_1) [1] is reported as “binds”.

B2: Cas12c_1 trancRNA (short) (ssRNA)
RNA: AUACCACCCGUGCAUUUCUGGAUCAAUGAUCCGUACCUCAAUGUCCGGGCGCGCAGCUAGAGCGACCUGAAAUCU
On to B2, for which the binding result with Cas12c_1 (C2c3_1) [2] was “binds”.
